# Measured values reported in article PMC5431456, “Structure aided design of a Neu5Gc specific lectin” (Scientific Reports, 2017).
# B1: bovine α1-acid glycoprotein (AGP) (natural protein)
# chain: QSPECANLMTVAPITNATMDLLSGKWFYIGSAFRNPEYNKSARAIQAAFFYLEPRHAEDKLITREYQTIEDKCVYNCSFIKIYRQNGTLSKVESDREHFVDLLLSKHFRTFMLAASWNGTKNVGVSFYADKPEVTQEQKKEFLDVIKCIGIQESEIIYTDEKKDACGPLEKQHEEERKKETEAS
# modifications: glycans that contain both Neu5Ac and Neu5Gc
# notes: also called Bovine α1-AGP; bovine AGP
# B2: Subtilase cytotoxin B subunit (SubB), wild type (natural protein)
# chain: EWTGDARDGMFSGVVITQFHTGQIDNKPYFCIEGKQSAGSSISACSMKNSSVWGASFSTLYNQALYFYTTGQPVRIYYKPGVWTYPPFVKALTSNALVGLSTCTTSTECFGPDRKKNS
# notes: also called Wild type SubB; wild-type SubB; source: E. coli BL21(DE3), pET-23(+), purified (Ni-NTA)
# B3: SubB S106A/T107A (natural protein)
# chain: EWTGDARDGMFSGVVITQFHTGQIDNKPYFCIEGKQSAGSSISACSMKNSSVWGASFSTLYNQALYFYTTGQPVRIYYKPGVWTYPPFVKALTSNALVGLSTCTTAAECFGPDRKKNS
# notes: source: E. coli BL21(DE3), pET-23(+), purified (Ni-NTA)
# B4: SubB ΔS106/ΔT107/E108D (natural protein)
# chain: EWTGDARDGMFSGVVITQFHTGQIDNKPYFCIEGKQSAGSSISACSMKNSSVWGASFSTLYNQALYFYTTGQPVRIYYKPGVWTYPPFVKALTSNALVGLSTCTTDCFGPDRKKNS
# notes: as for B3
# How the values were obtained:
# Conditions in all cases: both partners purified
# [1] = target: T1, SubB ΔS106/ΔT107 (Escherichia coli, UniProt Q6EZC3 24-141, ΔS106/ΔT107); experiment: SPR
# T1 construct: source: E. coli BL21(DE3), pET-23(+), purified (Ni-NTA)
# [2] = target: B1; experiment: SPR; Biacore T100; SubB or SubB mutant immobilised on a series S CM5 chip (flow cell 1 blank); AGP flowed over, 0.01-100 µM in range finding; single cycle kinetics
# [3] = target: B1; experiment: SPR
binder,measurement,setting,value
B1,Kd,[1],115 ± 37 nM
B2,Kd,[2],156 ± 22 nM
B3,Kd,[3],164 ± 10 nM
B4,Kd,[3],32.5 ± 2.6 nM
